Measured values reported in the supplement of paper PMC11811203.

B1: THAP1; numbered along this chain (parent)
chain: MVQSCSAYGCKNRYDKDKPVSFHKFPLTRPSLCKEWEAAVRRKNFKPTKYSSICSEHFTPDCFKRECNNKLLKENAVPTIFLCTEPHDKKEDLLEPQEQLPPPPLPPPVSQVDAAIGLLMPPLQTPVNLSVFCDHNYTVEDTMHQRKRIHQLEQQVEKLRKKLKTAQQRCRRQERQLEKLKEVVHFQKEKDDVSERGYVILPNDYFEIVEVPA

Variants of: B1
Test: THAP1 transcriptional activity (GFP+/GFP- enrichment relative to wild-type constructs) (ratio to WT); higher = more THAP1 activity (PSMB5 reporter activation)
Details: with PSMB5 promoter-GFP reporter
How it was run: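 In duplicate, a lentivirus-delivered library with every residue from 2–213 of human THAP1 changed to all 20 amino acids was introduced at MOI ~0.3 into THAP1-knockout HEK-293T cells carrying endogenous PSMB5 tagged by mClover3 knock-in. Five days on, BFP+ cells were binned as GFP-dim or GFP-bright, and Illumina sequencing of genomic DNA amplicons counted each variant. Activity is the bright/dim read fold change, averaged over replicates and scaled to the mean of wild-type synonymous constructs.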
In the case of V40M, the THAP1 transcriptional activity is reported as 0.853. Work on V40T yielded a THAP1 transcriptional activity of 0.238. V40W gave a THAP1 transcriptional activity of 0.169. For V40C, the THAP1 transcriptional activity was 0.665. In the case of V40P, the THAP1 transcriptional activity is reported as 0.128. For D17T, the THAP1 transcriptional activity was 1.49. In the case of P47D, the THAP1 transcriptional activity is reported as 0.108. P47R was tested, and the THAP1 transcriptional activity was 0.0941. For A114S, the THAP1 transcriptional activity was 0.612. F45A was tested, and the THAP1 transcriptional activity was 0.0632. With F45M the THAP1 transcriptional activity was 0.12. F45Q showed a THAP1 transcriptional activity of 0.128. V184W was tested, and the THAP1 transcriptional activity was 0.59. Variant V184M has a THAP1 transcriptional activity of 1.22. In the case of Q111K, the THAP1 transcriptional activity is reported as 1.01. L201K showed a THAP1 transcriptional activity of 0.887. Work on S130F yielded a THAP1 transcriptional activity of 0.246. With S130H the THAP1 transcriptional activity was 0.517. P78A showed a THAP1 transcriptional activity of 0.526. Work on P30E yielded a THAP1 transcriptional activity of 0.399. With P30F the THAP1 transcriptional activity was 0.129. With L118A the THAP1 transcriptional activity was 0.723. With L118H the THAP1 transcriptional activity was 1.01. For L118E, the THAP1 transcriptional activity was 0.947. In the case of D88Y, the THAP1 transcriptional activity is reported as 0.858. M143R was tested, and the THAP1 transcriptional activity was 0.991. In the case of L27P, the THAP1 transcriptional activity is reported as 0.103. Variant E85G has a THAP1 transcriptional activity of 1.14. For C83H, the THAP1 transcriptional activity was 2.25. For K158D, the THAP1 transcriptional activity was 0.831. For K181S, the THAP1 transcriptional activity was 0.298. With K181T the THAP1 transcriptional activity was 0.491. With T125G the THAP1 transcriptional activity was 0.666. With K161N the THAP1 transcriptional activity was 0.475. Work on K161S yielded a THAP1 transcriptional activity of 0.639. Work on S55Q yielded a THAP1 transcriptional activity of 0.168. For S55Y, the THAP1 transcriptional activity was 0.109. In the case of C62T, the THAP1 transcriptional activity is reported as 0.195. Variant P19H has a THAP1 transcriptional activity of 0.266. With P19L the THAP1 transcriptional activity was 0.412. With P19K the THAP1 transcriptional activity was 0.674. R13E showed a THAP1 transcriptional activity of 0.153. R13I gave a THAP1 transcriptional activity of 0.116. R13H showed a THAP1 transcriptional activity of 0.117. With L159A the THAP1 transcriptional activity was 0.245. For L159T, the THAP1 transcriptional activity was 0.209. In the case of L159G, the THAP1 transcriptional activity is reported as 0.147. In the case of R172Y, the THAP1 transcriptional activity is reported as 0.252. For R172D, the THAP1 transcriptional activity was 0.201. Variant R172G has a THAP1 transcriptional activity of 0.234. With A213N the THAP1 transcriptional activity was 1.27. A213V gave a THAP1 transcriptional activity of 0.455. Y50E showed a THAP1 transcriptional activity of 0.108. P96G was tested, and the THAP1 transcriptional activity was 1.55. Work on P96H yielded a THAP1 transcriptional activity of 0.971. D15E was tested, and the THAP1 transcriptional activity was 0.569. D15I gave a THAP1 transcriptional activity of 0.436. D15G showed a THAP1 transcriptional activity of 0.411. Variant N68A has a THAP1 transcriptional activity of 0.103. Work on L32Q yielded a THAP1 transcriptional activity of 0.378. In the case of L32H, the THAP1 transcriptional activity is reported as 0.17. Variant L32V has a THAP1 transcriptional activity of 0.794. L32W showed a THAP1 transcriptional activity of 0.161. In the case of A115I, the THAP1 transcriptional activity is reported as 0.237. Work on A115E yielded a THAP1 transcriptional activity of 1.47. For K16S, the THAP1 transcriptional activity was 0.191. In the case of K73L, the THAP1 transcriptional activity is reported as 0.33. Work on K73I yielded a THAP1 transcriptional activity of 0.142. Variant K73Y has a THAP1 transcriptional activity of 0.291. Work on T142H yielded a THAP1 transcriptional activity of 0.658. T142A was tested, and the THAP1 transcriptional activity was 0.581. Variant F58S has a THAP1 transcriptional activity of 0.0937. Variant K90Y has a THAP1 transcriptional activity of 0.498. With K90A the THAP1 transcriptional activity was 1.95. For K90S, the THAP1 transcriptional activity was 1.77. Variant K90L has a THAP1 transcriptional activity of 0.82. In the case of K90N, the THAP1 transcriptional activity is reported as 1.49. With P108A the THAP1 transcriptional activity was 1.3. With P108T the THAP1 transcriptional activity was 1.43. In the case of Q145G, the THAP1 transcriptional activity is reported as 0.569. In the case of L129Y, the THAP1 transcriptional activity is reported as 0.843. With L129I the THAP1 transcriptional activity was 1.12. With L93T the THAP1 transcriptional activity was 1.14. Variant L93P has a THAP1 transcriptional activity of 1.58. Variant L93I has a THAP1 transcriptional activity of 1.37. For T59Q, the THAP1 transcriptional activity was 0.605. For E56I, the THAP1 transcriptional activity was 0.6. E56F showed a THAP1 transcriptional activity of 0.363. N128Q gave a THAP1 transcriptional activity of 0.507. Work on N128E yielded a THAP1 transcriptional activity of 0.856. K188V showed a THAP1 transcriptional activity of 0.826. For L119A, the THAP1 transcriptional activity was 0.912. Variant L119P has a THAP1 transcriptional activity of 1.08. Work on L119V yielded a THAP1 transcriptional activity of 0.5. H23Q showed a THAP1 transcriptional activity of 0.0718. H23K showed a THAP1 transcriptional activity of 0.125. Variant H23L has a THAP1 transcriptional activity of 0.0839. H23F gave a THAP1 transcriptional activity of 0.0843. D113Y showed a THAP1 transcriptional activity of 0.229. In the case of P106C, the THAP1 transcriptional activity is reported as 1.25. Work on N69Y yielded a THAP1 transcriptional activity of 0.261. Variant H150P has a THAP1 transcriptional activity of 0.317. H150W showed a THAP1 transcriptional activity of 0.976. For H150G, the THAP1 transcriptional activity was 0.721. E74S showed a THAP1 transcriptional activity of 0.604. In the case of E74P, the THAP1 transcriptional activity is reported as 0.952. For C54E, the THAP1 transcriptional activity was 0.0874. For C54K, the THAP1 transcriptional activity was 0.097. With T48R the THAP1 transcriptional activity was 0.132. With T48L the THAP1 transcriptional activity was 0.115. T48P gave a THAP1 transcriptional activity of 0.174. Work on T48W yielded a THAP1 transcriptional activity of 0.0814. For T48I, the THAP1 transcriptional activity was 0.123. In the case of D191C, the THAP1 transcriptional activity is reported as 0.786. D191L was tested, and the THAP1 transcriptional activity was 1.26. Work on D191T yielded a THAP1 transcriptional activity of 1.12. In the case of D61L, the THAP1 transcriptional activity is reported as 0.209. With F132I the THAP1 transcriptional activity was 0.806. With P103S the THAP1 transcriptional activity was 1.1. P126G gave a THAP1 transcriptional activity of 0.386. Variant K49I has a THAP1 transcriptional activity of 0.398. Variant K49Y has a THAP1 transcriptional activity of 0.0951. N75H gave a THAP1 transcriptional activity of 0.567. I200W showed a THAP1 transcriptional activity of 0.555. Work on I200Q yielded a THAP1 transcriptional activity of 1.09. For Q155V, the THAP1 transcriptional activity was 0.773. In the case of Q155C, the THAP1 transcriptional activity is reported as 0.531. With F63P the THAP1 transcriptional activity was 0.103. Work on M120S yielded a THAP1 transcriptional activity of 0.984. T138G showed a THAP1 transcriptional activity of 0.526. In the case of V112C, the THAP1 transcriptional activity is reported as 1.08. E189W gave a THAP1 transcriptional activity of 1.16. E189K was tested, and the THAP1 transcriptional activity was 1.1. I53S gave a THAP1 transcriptional activity of 0.112. With V2L the THAP1 transcriptional activity was 0.214. Variant E98T has a THAP1 transcriptional activity of 1.66. E98W showed a THAP1 transcriptional activity of 0.567. Variant E37R has a THAP1 transcriptional activity of 0.157. Work on E37T yielded a THAP1 transcriptional activity of 0.905. E37S gave a THAP1 transcriptional activity of 0.558. Variant E195W has a THAP1 transcriptional activity of 0.467. E195P was tested, and the THAP1 transcriptional activity was 0.704. Variant K34Y has a THAP1 transcriptional activity of 0.316. I208Q showed a THAP1 transcriptional activity of 0.835. N12K was tested, and the THAP1 transcriptional activity was 0.125. Work on N12R yielded a THAP1 transcriptional activity of 0.172. N12L was tested, and the THAP1 transcriptional activity was 0.0949. S4K gave a THAP1 transcriptional activity of 0.127. P101N gave a THAP1 transcriptional activity of 3.11. R171V was tested, and the THAP1 transcriptional activity was 0.142. Y14N was tested, and the THAP1 transcriptional activity was 0.165. Variant Y14Q has a THAP1 transcriptional activity of 0.142. Y14I was tested, and the THAP1 transcriptional activity was 0.119. Y14M showed a THAP1 transcriptional activity of 0.0755. V77G showed a THAP1 transcriptional activity of 0.281. Variant S51D has a THAP1 transcriptional activity of 0.0561. Variant S51G has a THAP1 transcriptional activity of 0.0575. V109R showed a THAP1 transcriptional activity of 0.788. For V109W, the THAP1 transcriptional activity was 0.467. With A39K the THAP1 transcriptional activity was 0.9. A39E showed a THAP1 transcriptional activity of 0.168. For A39C, the THAP1 transcriptional activity was 0.272. Q97T showed a THAP1 transcriptional activity of 1.88. Q97N was tested, and the THAP1 transcriptional activity was 0.877. For D141T, the THAP1 transcriptional activity was 0.642. I116T was tested, and the THAP1 transcriptional activity was 1.04. In the case of I116F, the THAP1 transcriptional activity is reported as 0.452.
